These results are taken from publication PMC9275217, “Improvement of Fusel Alcohol Production by Engineering of the Yeast Branched-Chain Amino Acid Aminotransaminase” (Applied and Environmental Microbiology, 2022).

Data set [1] has as its target T1, Bat1ΔN16^WT (Saccharomyces cerevisiae, UniProt P38891).
T1 construct: gene BAT1; first 16 residues (mitochondrial-targeting signal) removed; N-terminal His-tag (pET53-dest, tag not reported cut); E. coli BL21(DE3); dimer
T1 sequence (P38891 17-393): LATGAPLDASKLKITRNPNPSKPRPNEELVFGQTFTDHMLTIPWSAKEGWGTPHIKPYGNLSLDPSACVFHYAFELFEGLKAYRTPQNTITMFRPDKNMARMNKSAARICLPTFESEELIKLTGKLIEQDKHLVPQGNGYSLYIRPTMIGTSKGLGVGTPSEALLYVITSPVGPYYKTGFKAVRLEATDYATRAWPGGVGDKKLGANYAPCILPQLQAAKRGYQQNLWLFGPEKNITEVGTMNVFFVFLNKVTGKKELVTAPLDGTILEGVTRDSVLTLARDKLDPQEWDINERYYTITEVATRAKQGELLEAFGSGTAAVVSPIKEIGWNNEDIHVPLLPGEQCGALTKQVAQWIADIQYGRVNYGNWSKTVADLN
The data set can be described thus: NADH absorbance […] nm, coupled to glutamate dehydrogenase. As to conditions: reverse reaction; 2 mM KG, 5 mM NAD+, 50 μM PLP, 200 mM potassium phosphate pH 8.5, 30°C; apparent. It is filed as biochemical.

Data set [2] has as its target T2, Bat1ΔN16^WT (Saccharomyces cerevisiae, UniProt P38891, G333S).
T2 construct: gene BAT1; first 16 residues (mitochondrial-targeting signal) removed; N-terminal His-tag (pET53-dest, tag not reported cut); E. coli BL21(DE3); dimer
T2 sequence (P38891 17-393 G333S): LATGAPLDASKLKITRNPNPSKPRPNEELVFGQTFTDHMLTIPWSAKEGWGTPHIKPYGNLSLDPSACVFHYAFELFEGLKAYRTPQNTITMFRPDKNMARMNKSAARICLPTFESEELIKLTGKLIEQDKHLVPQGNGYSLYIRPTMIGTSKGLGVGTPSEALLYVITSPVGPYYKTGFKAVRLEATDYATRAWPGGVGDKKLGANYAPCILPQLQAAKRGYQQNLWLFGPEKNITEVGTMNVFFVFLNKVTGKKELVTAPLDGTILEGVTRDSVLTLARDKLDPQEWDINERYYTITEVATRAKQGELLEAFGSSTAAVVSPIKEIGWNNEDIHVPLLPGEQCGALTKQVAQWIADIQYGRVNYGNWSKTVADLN
The data set is described as above. It is filed as biochemical. As to conditions: reverse reaction; 2 mM KG, 5 mM NAD+, 50 μM PLP, 200 mM potassium phosphate pH 8.5, 30°C; apparent.

Substrate in data set [3]: CC(C)[C@H](N)C(=O)O
The data set can be described thus: purified protein. As to conditions: reverse reaction, 2 mM KG, 5 mM NAD+, 50 μM PLP, 200 mM potassium phosphate pH 8.5, 30°C, apparent.

Substrate in data set [4]: CC[C@H](C)[C@H](N)C(=O)O
The data set can be described thus: purified protein. As to conditions: reverse reaction, 2 mM KG, 5 mM NAD+, 50 μM PLP, 200 mM potassium phosphate pH 8.5, 30°C, apparent.

Substrate in data set [5]: CC(C)C(=O)C(=O)O
As to the kind of experiment: purified protein. It is filed as biochemical, Saccharomyces cerevisiae. As to conditions: forward reaction, 100 mM Glu, 50 μM PLP, 100 mM NH4Cl, 0.25 mM NADH, 200 mM potassium phosphate pH 8.0, 30°C, apparent.

Substrate in data set [6]: CC(C)CC(=O)C(=O)O
As to the kind of experiment: purified protein. The settings on record: forward reaction, 100 mM Glu, 50 μM PLP, 100 mM NH4Cl, 0.25 mM NADH, 200 mM potassium phosphate pH 8.0, 30°C, apparent. It is filed as biochemical, Saccharomyces cerevisiae.

Substrate in data set [7]: CC[C@H](C)C(=O)C(=O)O
As to the kind of experiment: purified protein. Format: biochemical, Saccharomyces cerevisiae. As to conditions: forward reaction, 100 mM Glu, 50 μM PLP, 100 mM NH4Cl, 0.25 mM NADH, 200 mM potassium phosphate pH 8.0, 30°C, apparent.

Substrate in data set [8]: CC(C)C[C@H](N)C(=O)O
As to the kind of experiment: purified protein. The settings on record: reverse reaction, 2 mM KG, 5 mM NAD+, 50 μM PLP, 200 mM potassium phosphate pH 8.5, 30°C, apparent.

On to `CC(C)C[C@H](N)C(=O)O` [Leu], for which the Km on Bat1ΔN16^WT [1] was 0.285 ± 0.0679 mM; at Bat1ΔN16^WT [2], 3.08 ± 1.42 mM.

B1: Bat1ΔN16^WT (Saccharomyces cerevisiae S288C) (protein)
chain: LATGAPLDASKLKITRNPNPSKPRPNEELVFGQTFTDHMLTIPWSAKEGWGTPHIKPYGNLSLDPSACVFHYAFELFEGLKAYRTPQNTITMFRPDKNMARMNKSAARICLPTFESEELIKLTGKLIEQDKHLVPQGNGYSLYIRPTMIGTSKGLGVGTPSEALLYVITSPVGPYYKTGFKAVRLEATDYATRAWPGGVGDKKLGANYAPCILPQLQAAKRGYQQNLWLFGPEKNITEVGTMNVFFVFLNKVTGKKELVTAPLDGTILEGVTRDSVLTLARDKLDPQEWDINERYYTITEVATRAKQGELLEAFGSGTAAVVSPIKEIGWNNEDIHVPLLPGEQCGALTKQVAQWIADIQYGRVNYGNWSKTVADLN
notes: first 16 residues (mitochondrial-targeting signal) removed; N-terminal His-tag (pET53-dest, tag not reported cut); E. coli BL21(DE3); dimer
As to B1, the Km in the data set “purified protein [3]” was 454 ± 123 µM; in “purified protein [4]” it was 220 ± 102 µM; in “purified protein [5]”, 298 ± 100 µM; in the data set “purified protein [6]”, 323 ± 101 µM; in “purified protein [7]” it was 218 ± 111 µM. In addition, the kcat in “purified protein [3]” was found to be 3.37 s⁻¹; in “purified protein [4]”, 3.74 s⁻¹; in “purified protein [5]”, 9.55 ± 1.92 s⁻¹; in the data set “purified protein [6]”, 15.4 ± 2.92 s⁻¹; in the data set “purified protein [7]”, 4.73 ± 1.29 s⁻¹. Also, the specificity constant (kcat/Km) worked out at 7420 M⁻¹ s⁻¹ in “purified protein [3]”; 17000 M⁻¹ s⁻¹ in the data set “purified protein [4]”; 32100 M⁻¹ s⁻¹ in “purified protein [5]”; 47700 M⁻¹ s⁻¹ in the data set “purified protein [6]”; 21700 M⁻¹ s⁻¹ in “purified protein [7]”.

B2: Bat1ΔN16^WT (Saccharomyces cerevisiae S288C; G333S) (protein)
chain: LATGAPLDASKLKITRNPNPSKPRPNEELVFGQTFTDHMLTIPWSAKEGWGTPHIKPYGNLSLDPSACVFHYAFELFEGLKAYRTPQNTITMFRPDKNMARMNKSAARICLPTFESEELIKLTGKLIEQDKHLVPQGNGYSLYIRPTMIGTSKGLGVGTPSEALLYVITSPVGPYYKTGFKAVRLEATDYATRAWPGGVGDKKLGANYAPCILPQLQAAKRGYQQNLWLFGPEKNITEVGTMNVFFVFLNKVTGKKELVTAPLDGTILEGVTRDSVLTLARDKLDPQEWDINERYYTITEVATRAKQGELLEAFGSSTAAVVSPIKEIGWNNEDIHVPLLPGEQCGALTKQVAQWIADIQYGRVNYGNWSKTVADLN
notes: as for B1
B2: in the data set “purified protein [6]”, the Km came out at 1570 ± 505 µM, the kcat was found to be 4.95 ± 0.945 s⁻¹ and the kcat/Km came to 3150 M⁻¹ s⁻¹.

B3: Bat2^WT (Saccharomyces cerevisiae S288C; G316S) (protein)
chain: MTLAPLDASKVKITTTQHASKPKPNSELVFGKSFTDHMLTAEWTAEKGWGTPEIKPYQNLSLDPSAVVFHYAFELFEGMKAYRTVDNKITMFRPDMNMKRMNKSAQRICLPTFDPEELITLIGKLIQQDKCLVPEGKGYSLYIRPTLIGTTAGLGVSTPDRALLYVICCPVGPYYKTGFKAVRLEATDYATRAWPGGCGDKKLGANYAPCVLPQLQAASRGYQQNLWLFGPNNNITEVGTMNAFFVFKDSKTGKKELVTAPLDGTILEGVTRDSILNLAKERLEPSEWTISERYFTIGEVTERSKNGELLEAFGSSTAAIVSPIKEIGWKGEQINIPLLPGEQTGPLAKEVAQWINGIQYGETEHGNWSRVVTDLN
notes: N-terminal His-tag (pET53-dest, tag not reported cut); E. coli BL21(DE3); dimer
B3: the Km in “purified protein [8]” amounted to 3890 ± 1060 µM; in the data set “purified protein [3]” it was 13300 ± 3440 µM; in the data set “purified protein [4]” it was 3400 ± 1140 µM; in the data set “purified protein [5]” it was 1730 ± 826 µM; in the data set “purified protein [6]”, 681 ± 189 µM; in the data set “purified protein [7]”, 308 ± 134 µM. Also, the kcat worked out at 1.61 s⁻¹ in “purified protein [8]”; 1.4 s⁻¹ in the data set “purified protein [3]”; 1.8 s⁻¹ in the data set “purified protein [4]”; 1.79 ± 0.521 s⁻¹ in “purified protein [5]”; 5.42 ± 0.615 s⁻¹ in “purified protein [6]”; 2.01 ± 0.282 s⁻¹ in “purified protein [7]”. In addition, the kcat/Km in the data set “purified protein [8]” was 414 M⁻¹ s⁻¹; in the data set “purified protein [3]”, 106 M⁻¹ s⁻¹; in the data set “purified protein [4]” it was 529 M⁻¹ s⁻¹; in “purified protein [5]”, 1030 M⁻¹ s⁻¹; in “purified protein [6]” it was 7960 M⁻¹ s⁻¹; in “purified protein [7]”, 6530 M⁻¹ s⁻¹.

B4: Bat2^WT (Saccharomyces cerevisiae S288C) (protein)
chain: MTLAPLDASKVKITTTQHASKPKPNSELVFGKSFTDHMLTAEWTAEKGWGTPEIKPYQNLSLDPSAVVFHYAFELFEGMKAYRTVDNKITMFRPDMNMKRMNKSAQRICLPTFDPEELITLIGKLIQQDKCLVPEGKGYSLYIRPTLIGTTAGLGVSTPDRALLYVICCPVGPYYKTGFKAVRLEATDYATRAWPGGCGDKKLGANYAPCVLPQLQAASRGYQQNLWLFGPNNNITEVGTMNAFFVFKDSKTGKKELVTAPLDGTILEGVTRDSILNLAKERLEPSEWTISERYFTIGEVTERSKNGELLEAFGSGTAAIVSPIKEIGWKGEQINIPLLPGEQTGPLAKEVAQWINGIQYGETEHGNWSRVVTDLN
notes: as for B3
B4: the Km worked out at 189 ± 60 µM in the data set “purified protein [8]”; 511 ± 111 µM in “purified protein [3]”; 119 ± 38.9 µM in “purified protein [4]”; 180 ± 44.4 µM in the data set “purified protein [5]”; 212 ± 61 µM in the data set “purified protein [6]”; 150 ± 59.4 µM in “purified protein [7]”. Further, the kcat amounted to 2.3 s⁻¹ in “purified protein [8]”; 2.71 s⁻¹ in “purified protein [3]”; 2.61 s⁻¹ in the data set “purified protein [4]”; 8.05 ± 1.02 s⁻¹ in “purified protein [5]”; 11.6 ± 1.82 s⁻¹ in the data set “purified protein [6]”; 5.48 ± 1.04 s⁻¹ in the data set “purified protein [7]”. The kcat/Km in the data set “purified protein [8]” stood at 12200 M⁻¹ s⁻¹; in the data set “purified protein [3]”, 5300 M⁻¹ s⁻¹; in “purified protein [4]” it was 21900 M⁻¹ s⁻¹; in the data set “purified protein [5]” it was 44700 M⁻¹ s⁻¹; in “purified protein [6]”, 54700 M⁻¹ s⁻¹; in “purified protein [7]” it was 36500 M⁻¹ s⁻¹.

The term Km denotes the concentration of substrate that gives half-maximal velocity. As a reminder, the kcat is the maximal rate divided by the concentration of active sites. By kcat/Km is commonly meant the second-order rate constant that governs catalysis at low substrate concentration.
